# Source: the DeepSol protein solubility set
# Experiment: soluble on expression in E. coli; label from the status in PepcDB or PDB records
row,Sequence,soluble on expression in E. coli
1,MSLKLARINLSRDDIHKRLGGGIPYGSIILVEGEESTGKSIIAQRLAYGFLQTAHSVTYTSTQLTTLEFVKQMMSLNYNINKKLLSGTLLYIPVYPLISDNTQKDDFIKKIMETRAFYEKDIVIFDSLSSLIVNDASDIKVNDLMAFFKRIASMNKVIIYTINPKELPESILTLLRSSATMVLKTEIYTFGGNIKNLVKIEKYNLAQGPFQKLMVFRVEPKLGIAVEISSVAEGHHHHHH,soluble
2,MKFKELSPSTYAEEFIRSKILVEEDGTAIKSQRELSADLGVSRNAIKYALKRLQYDGDIRIKERQGIEINKKRDINLLSMEPMSKELKQAEMHIKHISSEIIKTPDSLVDFFGNATELAEIKRIRLDDKDVVSFEISYLDNRKFEDIASVNFNECSLYQILENRYGKLPIYGYENITCVLANESLATKLNVKINTPLYQVDSYNYSDDDKAVEHTAQFLPANKIKYHFKAKNIFDYQEDDDDDII,not soluble
3,MVNTRPPKIDELLKIDPYLHDFQDEISRRYGVFLDYQRRIEECGGMEEFTSSYKQFGLNVQPDNSVKGLEWAPAAEKLALIGDFNNWDQNANVYKKEEHGKWSITVPAKEDGSCPIPHNSVIKIAVSRHGATHFKLSPWATFVTCPNPKETVIYHQNFWNPPEKYQLKEARPARPASLRIYEAHVGISSSEGKINTYREFADDVLPRIQKQGYNAIQLMAVMEHVYYASFGYQVSNFFAVSSRCGTPEDLKYLVDKAHSLGIFMLLDVVHSHASKNVEDGLNQWDGSNGGYFHDNARGYHNLWDSRLFDYTQTETLRFLLSNVRWWVEEYGFDGFRFDGVSSMIYHSHGMNDDFCGGYPMYFGLNADTDSLVYLMLANDFLHKKYPFMITIAEEVSGMPGICRPVEEGGQGFDYRLAMALPDMWIKILKHTSDEDWKIDDIVFNLENRRYAEKHVAYAESHDQALVGDKTIAFWLMDKEMYDFMSTDSPLTPIIDRGLSLHKLIRLITIGLGGEAWLNFIGNEFGHPEWLDFPRVGNGESFHYARRQFNLVDAEYLRYKFLNNWDREMMLLEERTGFLHKGYAYTSWKHDGDKTIVFERGGLVFVINLHPTKSFADYSIGVNTPGRYRIALNSDESKFGGHNRIDNSIKFHTTDDGYAGRRHRLQVYITCRTAIVLEKEDD,not soluble
4,MAKRKICQAMAVVLALGMCTTGLTGCGNEKRADGKTEIEVVSYKPEAVKAFEKIEKQFNETHDDIHLTISSPNEAMTILKTRFIREDYPDIIAIGGDINYSNFLDADLFEDISDLDAVDNVKEAYLDMDKELEFIPKDGTYALPYAANAAGVLYNKDMFAENGWKVPTTWSEFTALCDEIKESGTLPLYLGFKDTWTCLAPWNALAVGLCDSDTCNQVNMGNTTFEEAYSPVADKIRTLLDYAEDNPYAYSYNDACTAFARGESAMYTIGSYAIPQIKSVNPDMNIGSFTFPANDNEADNVLNSGIDLQLSVMKACKNKEAAYEVLEYLYSDETIQTYLDDQGGIACKEGDFAIPDTLEDMQEYIKDNRMSDYQDHHYPSEMSVDAMIQTYLLDTGDNAKEKFLKKFDSDWERYNRDLIREVQDYQKEQEDAK,not soluble
5,MRLALADAGDTVEDANFVEAMADAGILRLYTWVEWVKEMLASCSSLRSGPADSFNDRVFASEMNAGIIKTDQNYEKMMFKEALKTGFFEFQAAKDKYRELATEGMHRELVFRFIEVQTILLTPFCPHLCEHIWTLLGKPDSIMHASWPVAGPVDESLIRSSQYLMEVAHDLRLRLKNYMMPAKGKKTDKQPAQRPSHCTIYVAKNYPAWQHITLTTLRSHFEANNGKLPDNKVIASELGSLPELKKYMKKVMPFVAMIKENMEKKGPRVLDLELEFDEQAVLMENIVYLTNSLELEHIDVKFASEAEDKVREECCPGKPLNVFRTEPGVPVSLINPQPSSGHFSTKIDIRQGDSCESIIRRLTKTDRGIKDLSKVKLMRFDDPLLGPRRVPVLGREHSEKTLISENAVFHVDLVSKKVHLTENGLRMDIGDTMVYLVH,not soluble
6,MVVLVTRSLLPALFFASRAPFAAATTSARFQRGLATMAAEAFTKHEVIPDVLASNPPSKVVSVKFNSGVEANLGNVLTPTQVKDTPEVKWDAEPGALYTLIKTDPDAPSRKEPTYREWHHWLVVNIPGNDIAKGDTLSEYIGAGPPPKTGLHRYVYLIYKQSGRIEDAEHGRLTNTSGDKRGGWKAADFVAKHKLGAPVFGNLFQAEYDDYVPILNKQLGA,not soluble
7,MTQMKIFVIGAHGQIGKKIVSKLVAQGDQVYAGIRQPEQAEAFEDAGAQPVQFNLMAQPEDLALAFNGMDAIVFAAGSGGQTGYDMTLMIDLDGAVKSMVAAKIAGVKRYVIISAEFTPDRSRWPRALQPYYVAKYYADEWLKNRTQLDYTILQPGTLINDAGTGKVTVNPDVGGEITRDDVATFTVQTLHTPATVGKTIALINGDTPISKAVQQA,not soluble
8,MIIGIDVGGTNTDAAIVSDEIKTIKLPNEAGIGGILKEISKEANLIEEKVVVSTSWPLNLIISKFSESRTLSLVIPGPGLNYSEYGEVLKGYVNHRGDVVEDIDEYEIAAIFRENSYDNVAISSKFSVRNGSLEDRVAEIVRNYVEDYRIALSHYAGGMNYPARIHTTVVNAKIRETVYRLTELIKAYAGDFYYFKGDGGIVPYTIALNNPSELYNSSPAAVALGAVYLTGEKNALVVDIGGTSTDFVEVIDGMPKIVEGIELAGRKTLIRCVDSVSIPFGGDSVVENGKLVPVCSKPIAFGGESFTLTDALNCAGYEIGDYRSSRKYECDVEKALNQFVSLAATTVREIGCKKIVGTGYLAPYLIPEVAKAAGVEYVIPDHYESANAVGVAVSRVSLTLYVRIDTEKCFAAYNGHTESCPFKPGSLPDDEQILEVAKEKVVEVAKKFGASEEELGKVRTVYFNSFTVVRGGMKRGVIADVIVQIEPGIRYGGLAAALEHHHHHH,not soluble
9,MGSDKIHHHHHHAGTQTAQTQALDSDGIPTGGEWITMFDGKTLNGWRGYCRQDVPLGWVVEDGSITYKGSDNKADTGFGDLIYDKKFKNFVFEIEWKIDKAGNSGIFYTAQEIEGTPIYYSSPEYQLLDNENMPDAWEGCDGNRQAGAVYDMIMPDPQPVKPYGNWNKTRIVVYNQRVIHYMNDVKILEFQFGTPVWRALVDHSKFSKFSTSPEKCPEAYDLMLQCGKQPGYIGMQDHGYGVCFRNIRIKEL,not soluble
10,VLGSSSTDAIGPGSVFQIDATVADVYLVSRFNRTHIIGRPVLYIVQDCFSKLIVGLYVGLEGPSWIGAAMALANTAGNKVSFCSQYGIDIQEEEWPVHHLPQAILADRGEMLSDNAESLIMNLGITVKNTPPFRADWKPLVERYFKLTNERTKSLLPGAVNTDFMQRGGRDYRLDAKLDLMQFTAIIIKCALFHNNHYRIDNYNKDEMMVADEVEPIPREIWNWGIANRMGKLRHVDEEVVKLNLMPSDNGVVTAKGIRFKGLFYSSKSSMKEQWFVKARSSGSWKVPVSYDPRNMNYIYIKKSATEFEKCYLLEYQTAFKDKYIEEIEYLMEWEKMQKAKSLDEGLQAKADLITEIETIVEGAKSKTNKELSLSTESDAQRKKNIRQNRQVEKEINREIEAFELDRQPNNKNAEIISLNELEEELPSNPLDLLRRKQREMLGKINE,not soluble
11,MAGHQISFAKEVQPIIETKCLSCHSCFDAPCQLKLESAESLLRGASQEPVYSSARTTEMKPTRLGIDELTVAGWRKRGFYSVLQSDREHAQSLLKNMITLGKQYPFPPNSKLPDSIKTGFARKNQCVSEEEFPGYAHDHPFEGMPFGTSGLTDREYSLLAGWLNQGAAVTDEPVTLTRDEEQTIRTWETLFNRDDKRGRLVARWLYEHLFLAYLYFPEAGDEPRFFELLRSSTPSGEAIIPVATVSPNSDPGGPFFYRLRPISGTIVHKRRISYPLDQMKLRRISELFFSEDWPVGDLPGYDYTERSNPFVTFAAIPARARYQFMLDEAEYFVRTFIHGPVCRGQIATDVIRDHFWTLFQSPESDLFITADTYRRQAIPLLGIPGQDDDLLDAGENWLRYLKRHNDYLALRQQHYVAQQPQGASLAHIWNGDGHNENALLTIFRHHNSASVVRGLAGAVPQTIWLMDYPLLEQTYYQLVVNFNVFGNVAHQVLTRLYFDLIRNGSEQNFVRLLPAGQRKTILNDWYQDLGKLKFGIVYEDIDDRSPSAERFVTENPKLELASHMLERFQSINTLSHDPLNRCEQGNCSRIDQPHWIQQADRALSGIAAQPAASLPGISLLPEVTFVRVQHGQNERTVYTLLRDRAHSNVAFMLGEELRYQPEKDRVTVYPGITGSYPNFMFDVPAAQVGEFVAKLSKAGKIKDFEQIVETWGIRRTHPQFWEILHDITAWQKQQQPLQAGIFDINRYENFLEHHHHHH,not soluble
12,MRIQFEIKESLINILDQLMHSDFWATEIKEDESGKKIIKIKDLAYNLEAVAEVMGNEIFIRTALSKYTYRIYEVKGECWCEYVGAYRGFLEQKLLPIITPKENLLECEVLDSSILGGKQKTLREYAEDNLKLKKFREQNFGNNGFSKADHPRRVYDEFIKEDFIPEDKKGHSLNITKSAN,not soluble
13,MKKEQISTQFYEVNPHTMIIFPKKSGSIVYSEIYEVDSHYTSKFTPFELIKTSCNFFGSSYDGGRRNGIPKIKTSSQKDVFILLLYRRNSISVTNY,not soluble
14,MQIQQNNSLIYNTLTKKLSSFIPIKSTRRKLRNHIQYKLEHPKVTNYLSNNYINPFLEGKIPHFDFEKKHYFKNDKIIWQFWYQGKNQASPMIQQCFNSVQSQMKDDYTIIILDKDNIKDYLDFPPFVIEKLENNFFGEKTITFFSDLLRVCLLATYGGIWCDASIFLSSKIPSELCDKDFFTFERSKIKPSKEKLKKFIKSGYFSYGYFNWNDDFKVKMLSSFMIAKTNNTFIQTLKDILMNYWKNEQSSENHYYFILHIIFELLKEHGFVNDIYKNMSDIECHLLQFSAKEKFNSTLWEEIQKQSFLHKLTHFKSIKKDSMIDKIILQSLEHHHHHH,soluble
15,PRRLEPLIEDGLIDEVVRPLMSGKEASVYVVRCGDSLRCAKVYKEANKRSFRQAAEYQEGRKVRNSRQARAMAKGSKYGRREQEEAWQNAEVAALFRLAGAGVRVPKPYDFLDGVLLMELVADADGDAAPRLNDVTLEPDEARRHHAFLIRQIVAMLCAGLVHGDLSEFNVLLGPDGPVIIDLPQAVDAAGNNHAFSMLERDVGNMAAYFGRFAPELRQTRYAKEMWALYEAGELTAETPLSGTFVEAEEAADVRAVLREIEAAQREEARRQALRQADDAPRGEREE,not soluble
16,MGSDKIHHHHHHMTKEASRPALDLARQAYEAFKARGLNLNMQRGQPADADFDLSNGLLTVLGAEDVRMDGLDLRNYPGGVAGLPSARALFAGYLDVKAENVLVWNNSSLELQGLVLTFALLHGVRGSTGPWLSQTPKMIVTVPGYDRHFLLLQTLGFELLTVDMQSDGPDVDAVERLAGTDPSVKGILFVPTYSNPGGETISLEKARRLAGLQAAAPDFTIFADDAYRVHHLVEEDRAEPVNFVVLARDAGYPDRAFVFASTSKITFAGAGLGFVASSEDNIRWLSKYLGAQSIGPNKVEQARHVKFLTEYPGGLEGLMRDHAAIIAPKFRAVDEVLRAELGEGGEYATWTLPKGGYFISLDTAEPVADRVVKLAEAAGVSLTPAGATYPAGQDPHNRNLRLAPTRPPVEEVRTAMQVVAACIRLATEEYRAGH,not soluble
17,MSTPRQILAAIFDMDGLLIDSEPLWDRAELDVMASLGVDISRRNELPDTLGLRIDMVVDLWYARQPWNGPSRQEVVERVIARAISLVEETRPLLPGVREAVALCKEQGLLVGLASASPLHMLEKVLTMFDLRDSFDALASAEKLPYSKPHPQVYLDCAAKLGVDPLTCVALEDSVNGMIASKAARMRSIVVPAPEAQNDPRFVLSNVKLSSLTELTAKDLLG,soluble
18,MNIQWFPGHMAKTRRILAENLKMVDVVVELLDARIPASSKNPEIDGIVKNKPKIVVLNKADLADEKISNEWSKWYNSQGYATIFIDSIKGTGIKQLKDQMRDIMKDRIERDRQRGRIFRPIRTMIVGIPNVGKSSLINKIAGKKSAVTGDRPGVTRNKQWINVNNEIQLMDTPGILWPKFEDKTVGINLAVTGAIKDEIIDTVELASILLEHLSKTYPENIKKRYKLESLQDKKGYELLEEAGKKRGCIISGGEVDLTRIAAIVLDEFRGGKIGRITLERPGDAVQELVAD,not soluble
